Reference: paper PMC7383231, “Pseudo-RNA-Binding Domains Mediate RNA Structure Specificity in Upstream of N-Ras”

Tests used:
dUnr CSD789 [1] = target: T1, dUnr CSD789 (Drosophila melanogaster, UniProt B7Z0E2 756-990); test: EMSA; EMSA: 20 mM HEPES/NaOH pH 7.5, 50 mM NaCl, 10% glycerol, 2 mM DTT, 1 h at 4 C, ~25 nM RNA; NMR: 20 mM NaP pH 6.5, 50 mM NaCl, 1 mM DTT (10 mM for CSD12), 10% D2O, 298 K; details: protein: recombinant; tags: tag cleaved with TEV; label: 3' pCp-Cy5; stem loops
T1 sequence: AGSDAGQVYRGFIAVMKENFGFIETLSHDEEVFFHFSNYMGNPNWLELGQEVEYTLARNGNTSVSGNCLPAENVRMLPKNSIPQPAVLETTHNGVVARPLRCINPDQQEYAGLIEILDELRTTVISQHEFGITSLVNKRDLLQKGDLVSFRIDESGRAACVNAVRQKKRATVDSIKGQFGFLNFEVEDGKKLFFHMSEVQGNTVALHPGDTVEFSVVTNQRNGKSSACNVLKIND

dUnr CSD456 = target: T2, dUnr CSD456 (Drosophila melanogaster, UniProt B7Z0E2 424-677); test: as above; details: protein: recombinant; tags: tag cleaved with TEV; label: 3' pCp-Cy5; stem loops
T2 sequence: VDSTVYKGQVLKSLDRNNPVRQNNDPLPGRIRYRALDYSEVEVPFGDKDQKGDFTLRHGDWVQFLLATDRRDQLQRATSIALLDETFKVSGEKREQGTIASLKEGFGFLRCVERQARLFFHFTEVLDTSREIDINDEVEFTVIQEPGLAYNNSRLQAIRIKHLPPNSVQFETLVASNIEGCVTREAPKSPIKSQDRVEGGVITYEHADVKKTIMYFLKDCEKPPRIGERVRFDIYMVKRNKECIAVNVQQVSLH

dUnr CSD123 = target: T3, dUnr CSD123 (Drosophila melanogaster, UniProt B7Z0E2 186-414); test: as above; details: protein: recombinant; tags: tag cleaved with TEV; label: 3' pCp-Cy5; stem loops
T3 sequence: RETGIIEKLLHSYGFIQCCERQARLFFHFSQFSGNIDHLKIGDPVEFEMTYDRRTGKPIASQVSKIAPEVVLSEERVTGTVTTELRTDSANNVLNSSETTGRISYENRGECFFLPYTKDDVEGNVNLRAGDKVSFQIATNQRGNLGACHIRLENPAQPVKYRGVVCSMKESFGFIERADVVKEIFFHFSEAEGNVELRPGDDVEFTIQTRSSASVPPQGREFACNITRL

Unr full-length (dUnr) = target: T4, Unr full-length (dUnr) (Drosophila melanogaster, UniProt B7Z0E2 1-1039); test: as above; details: protein: recombinant; tags: His6; label: 3' pCp-Cy5; stem loops
T4 sequence: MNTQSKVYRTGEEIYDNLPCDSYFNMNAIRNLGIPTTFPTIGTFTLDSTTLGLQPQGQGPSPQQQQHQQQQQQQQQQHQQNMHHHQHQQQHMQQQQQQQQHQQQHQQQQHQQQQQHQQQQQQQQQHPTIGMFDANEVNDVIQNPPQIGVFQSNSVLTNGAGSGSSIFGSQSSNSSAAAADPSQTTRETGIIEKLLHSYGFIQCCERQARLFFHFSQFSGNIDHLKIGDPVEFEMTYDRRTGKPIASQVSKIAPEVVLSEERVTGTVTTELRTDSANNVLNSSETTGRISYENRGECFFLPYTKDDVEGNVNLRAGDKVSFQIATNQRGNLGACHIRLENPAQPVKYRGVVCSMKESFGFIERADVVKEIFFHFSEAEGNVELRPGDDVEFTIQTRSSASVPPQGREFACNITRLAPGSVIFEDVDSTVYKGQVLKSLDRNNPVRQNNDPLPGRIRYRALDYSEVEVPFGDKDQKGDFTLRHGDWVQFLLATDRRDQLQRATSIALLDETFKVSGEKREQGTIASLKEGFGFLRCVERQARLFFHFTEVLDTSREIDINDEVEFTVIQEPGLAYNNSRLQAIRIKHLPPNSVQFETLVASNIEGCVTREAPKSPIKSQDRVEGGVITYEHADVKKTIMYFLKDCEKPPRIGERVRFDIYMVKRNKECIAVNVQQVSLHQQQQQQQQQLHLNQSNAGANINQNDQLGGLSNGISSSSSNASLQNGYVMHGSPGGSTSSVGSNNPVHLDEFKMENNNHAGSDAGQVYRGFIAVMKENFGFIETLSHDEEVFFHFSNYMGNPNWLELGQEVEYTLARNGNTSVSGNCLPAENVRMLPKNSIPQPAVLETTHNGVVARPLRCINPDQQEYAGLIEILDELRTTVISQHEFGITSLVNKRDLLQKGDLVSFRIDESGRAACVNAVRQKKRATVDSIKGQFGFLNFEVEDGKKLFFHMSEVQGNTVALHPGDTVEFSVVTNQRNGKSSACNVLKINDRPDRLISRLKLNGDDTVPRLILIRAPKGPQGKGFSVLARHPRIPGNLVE

dUnr CSD789 [2] = target: T1, dUnr CSD789; test: NMR titration; deuterated protein; CSPs in all three domains, intermediate-to-slow exchange; EMSA: 20 mM HEPES/NaOH pH 7.5, 50 mM NaCl, 10% glycerol, 2 mM DTT, 1 h at 4 C, ~25 nM RNA; NMR: 20 mM NaP pH 6.5, 50 mM NaCl, 1 mM DTT (10 mM for CSD12), 10% D2O, 298 K; details: protein: recombinant; tags: tag cleaved with TEV
dUnr ncCSD8 = target: T5, dUnr ncCSD8 (Drosophila melanogaster, UniProt B7Z0E2 841-922); test: NMR titration; no CSPs; EMSA: 20 mM HEPES/NaOH pH 7.5, 50 mM NaCl, 10% glycerol, 2 mM DTT, 1 h at 4 C, ~25 nM RNA; NMR: 20 mM NaP pH 6.5, 50 mM NaCl, 1 mM DTT (10 mM for CSD12), 10% D2O, 298 K; details: protein: recombinant; tags: tag cleaved with TEV
T5 sequence: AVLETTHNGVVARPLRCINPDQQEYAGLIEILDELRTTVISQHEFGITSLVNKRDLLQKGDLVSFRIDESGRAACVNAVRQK

dUnr ncCSD6 = target: T6, dUnr ncCSD6 (Drosophila melanogaster, UniProt B7Z0E2 593-677); test: as above; details: protein: recombinant; tags: tag cleaved with TEV
T6 sequence: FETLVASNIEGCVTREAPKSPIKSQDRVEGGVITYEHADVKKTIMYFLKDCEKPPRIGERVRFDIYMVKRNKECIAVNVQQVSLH

dUnr CSD9 = target: T7, dUnr CSD9 (Drosophila melanogaster, UniProt B7Z0E2 898-990); test: NMR titration; joint range given for CSD78 and CSD9; EMSA: 20 mM HEPES/NaOH pH 7.5, 50 mM NaCl, 10% glycerol, 2 mM DTT, 1 h at 4 C, ~25 nM RNA; NMR: 20 mM NaP pH 6.5, 50 mM NaCl, 1 mM DTT (10 mM for CSD12), 10% D2O, 298 K; details: protein: recombinant; tags: tag cleaved with TEV
T7 sequence: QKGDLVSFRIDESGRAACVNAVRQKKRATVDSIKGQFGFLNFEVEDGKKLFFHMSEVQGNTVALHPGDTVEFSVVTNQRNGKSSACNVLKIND

dUnr CSD78 = target: T8, dUnr CSD78 (Drosophila melanogaster, UniProt B7Z0E2 756-922); test: as above; details: protein: recombinant; tags: tag cleaved with TEV
T8 sequence: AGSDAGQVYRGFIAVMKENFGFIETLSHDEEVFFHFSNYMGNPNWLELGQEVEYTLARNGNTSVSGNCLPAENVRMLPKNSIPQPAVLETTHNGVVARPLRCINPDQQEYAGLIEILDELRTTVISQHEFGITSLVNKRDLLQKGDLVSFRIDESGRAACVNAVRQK

B1: SL67 (roX2 lncRNA stem loops 6 and 7) (structured_RNA)
RNA: ACAAUAUGCAAUACAAUACAAUACAAGACAAAAAAAUGUGUCUUGGAACCAACAUUGUACAAGUCGCAAUGCAAACUGAAGUCUUAAAAGACGUGUAAAAUGUUGCAAAUUAAGCAAAUAUAUAUGCAUAUAUGGGUAACGUUUUACGCGCCUUAACCAGU
- Kd (dUnr CSD789 [1]): 32 µM
- Kd (dUnr CSD456): 16 µM
- Kd (dUnr CSD123): 1410 nM
- Kd (Unr full-length (dUnr)): 707 nM

B2: A15-mer RNA (ssRNA)
RNA: AAAAAAAAAAAAAAA
- binding result (dUnr CSD789 [2]): binds

B3: 9-mer RNA from roX2 SL6 loop (ssRNA)
RNA: AAAAAAAUG
- binding result (dUnr ncCSD8): no binding
- binding result (dUnr ncCSD6): no binding
- Kd (dUnr CSD9): ~245 µM
- Kd (dUnr CSD78): ~245 µM
